According to paper PMC12603737, “Transmembrane domain interactions underlie NSG1 regulation of sortilin ectodomain shedding” (The Journal of Biological Chemistry, 2025):

How the values were obtained:
sortilin T770W [1] = molecular target: T1, sortilin T770W (human, UniProt Q99523 78-831, T770W); experiment: co-IP; HEK293MSR cells overexpressing sortilin WT or TMD mutants along with NSG1; lysis in 5 mM CHAPS buffer; IP with rabbit anti-sortilin (control rabbit IgG), protein A-agarose, 4 °C; NSG1 normalized to precipitated sortilin, percent of WT; five independent experiments; settings: partners not purified
T1 construct: signal peptide in the construct; propeptide too; Full-length human SORT1 with a mutation in the TMD; source: HEK293MSR, transfected, in lysate (5 mM CHAPS)
T1 sequence (looked up): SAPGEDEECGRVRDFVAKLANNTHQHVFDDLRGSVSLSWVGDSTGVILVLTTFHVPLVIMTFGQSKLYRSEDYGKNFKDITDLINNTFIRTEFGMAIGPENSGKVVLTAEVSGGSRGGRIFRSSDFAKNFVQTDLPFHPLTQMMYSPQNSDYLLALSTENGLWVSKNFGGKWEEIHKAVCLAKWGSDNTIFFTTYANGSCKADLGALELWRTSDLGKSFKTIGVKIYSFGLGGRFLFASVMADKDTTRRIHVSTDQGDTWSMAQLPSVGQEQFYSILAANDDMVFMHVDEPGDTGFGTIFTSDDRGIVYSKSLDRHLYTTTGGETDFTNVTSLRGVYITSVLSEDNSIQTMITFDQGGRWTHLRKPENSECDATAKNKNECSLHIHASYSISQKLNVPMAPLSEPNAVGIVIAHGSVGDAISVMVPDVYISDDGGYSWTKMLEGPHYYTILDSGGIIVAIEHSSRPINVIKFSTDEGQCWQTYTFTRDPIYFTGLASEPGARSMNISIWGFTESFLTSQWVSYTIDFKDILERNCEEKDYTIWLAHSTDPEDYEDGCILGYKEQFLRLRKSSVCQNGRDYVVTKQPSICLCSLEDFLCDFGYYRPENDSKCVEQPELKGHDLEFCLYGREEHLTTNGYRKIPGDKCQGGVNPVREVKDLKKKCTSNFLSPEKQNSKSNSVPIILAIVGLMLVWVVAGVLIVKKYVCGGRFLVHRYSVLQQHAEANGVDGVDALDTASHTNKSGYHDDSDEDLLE

sortilin A773W [2] = molecular target: T2, sortilin A773W (human, UniProt Q99523 78-831, A773W); experiment: as above; settings: partners not purified
T2 construct: signal peptide in the construct; propeptide too; Full-length human SORT1 with a mutation in the TMD; source: HEK293MSR, transfected, in lysate (5 mM CHAPS)
T2 sequence (looked up): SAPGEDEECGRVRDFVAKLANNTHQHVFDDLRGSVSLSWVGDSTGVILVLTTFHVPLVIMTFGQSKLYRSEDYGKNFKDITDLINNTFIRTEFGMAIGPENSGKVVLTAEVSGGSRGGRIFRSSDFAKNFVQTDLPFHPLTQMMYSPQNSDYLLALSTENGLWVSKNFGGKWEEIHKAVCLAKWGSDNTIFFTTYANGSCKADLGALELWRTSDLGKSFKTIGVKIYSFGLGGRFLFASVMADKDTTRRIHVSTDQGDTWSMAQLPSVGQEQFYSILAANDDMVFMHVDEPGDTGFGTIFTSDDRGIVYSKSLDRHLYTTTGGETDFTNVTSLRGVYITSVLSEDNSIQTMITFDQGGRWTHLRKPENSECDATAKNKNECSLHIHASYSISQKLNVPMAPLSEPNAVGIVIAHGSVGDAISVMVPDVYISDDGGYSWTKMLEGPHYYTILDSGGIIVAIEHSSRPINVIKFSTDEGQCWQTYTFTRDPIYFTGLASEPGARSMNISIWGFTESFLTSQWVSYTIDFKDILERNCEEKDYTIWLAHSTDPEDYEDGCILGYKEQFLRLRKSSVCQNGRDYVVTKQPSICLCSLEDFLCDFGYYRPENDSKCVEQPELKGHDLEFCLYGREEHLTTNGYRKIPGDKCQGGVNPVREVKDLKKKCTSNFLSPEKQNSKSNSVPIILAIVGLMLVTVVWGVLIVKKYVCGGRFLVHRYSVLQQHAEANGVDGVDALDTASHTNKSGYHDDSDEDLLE

sortilin Y781K = molecular target: T3, sortilin Y781K (human, UniProt Q99523 78-831, Y781K); experiment: as above; settings: partners not purified
T3 construct: signal peptide in the construct; propeptide too; Full-length human SORT1 with a mutation at the cytoplasmic border of the TMD; source: HEK293MSR, transfected, in lysate (5 mM CHAPS)
T3 sequence (looked up): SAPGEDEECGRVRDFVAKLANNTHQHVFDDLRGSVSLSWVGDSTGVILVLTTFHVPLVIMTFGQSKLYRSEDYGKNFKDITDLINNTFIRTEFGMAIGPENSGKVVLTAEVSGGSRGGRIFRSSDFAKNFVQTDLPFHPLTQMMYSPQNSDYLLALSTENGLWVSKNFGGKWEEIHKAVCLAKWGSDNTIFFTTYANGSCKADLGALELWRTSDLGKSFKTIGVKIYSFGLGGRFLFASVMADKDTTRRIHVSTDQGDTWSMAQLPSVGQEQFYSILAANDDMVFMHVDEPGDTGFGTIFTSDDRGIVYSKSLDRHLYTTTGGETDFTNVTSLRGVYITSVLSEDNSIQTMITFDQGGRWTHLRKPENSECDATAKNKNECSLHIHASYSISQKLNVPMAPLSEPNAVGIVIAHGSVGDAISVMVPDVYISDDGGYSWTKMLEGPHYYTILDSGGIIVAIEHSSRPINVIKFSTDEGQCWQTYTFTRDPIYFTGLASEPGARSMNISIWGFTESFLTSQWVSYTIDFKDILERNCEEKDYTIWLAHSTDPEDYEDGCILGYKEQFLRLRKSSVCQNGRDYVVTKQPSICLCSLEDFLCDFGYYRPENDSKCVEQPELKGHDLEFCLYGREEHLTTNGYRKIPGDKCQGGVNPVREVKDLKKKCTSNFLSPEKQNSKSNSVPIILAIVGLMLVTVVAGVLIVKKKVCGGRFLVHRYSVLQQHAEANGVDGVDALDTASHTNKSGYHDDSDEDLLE

sortilin T770W [3] = molecular target: T1, sortilin T770W; experiment: cell-based or functional assay
sortilin A773W [4] = molecular target: T2, sortilin A773W; experiment: cell-based or functional assay

B1: neuron-specific gene 1 (NSG1) (natural protein, human, UniProt P42857 1-185, looked up)
chain: MVKLGNNFAEKGTKQPLLEDGFDTIPLMTPLDVNQLQFPPPDKVVVKTKTEYEPDRKKGKARPPQIAEFTVSITEGVTERFKVSVLVLFALAFLTCVVFLVVYKVYKYDRACPDGFVLKNTQCIPEGLESYYAEQDSSAREKFYTVINHYNLAKQSITRSVSPWMSVLSEEKLSEQETEAAEKSA
notes: Human NSG1, subcloned from the pPR3 yeast two-hybrid library vector into pcDNA3; UniProt P42857 is printed for the modelling; no tag is named, detection with an anti-NSG1 antibody; source: HEK293MSR, transiently transfected, in lysate (5 mM CHAPS)
For B1, the “NSG1 coimmunoprecipitated, normalized to immunoprecipitated sortilin, percent of WT sortilin” value (sortilin T770W [1]) was 146%, the “NSG1 coimmunoprecipitated, normalized to immunoprecipitated sortilin, percent of WT sortilin” value (sortilin A773W [2]) was 129% and the “NSG1 coimmunoprecipitated, normalized to immunoprecipitated sortilin, percent of WT sortilin” value (sortilin Y781K) was 130%. The “sortilin ectodomain accumulated in conditioned media of HEK293MSR cells cotransfected with NSG1 (Western blot), percent of WT sortilin” value (sortilin T770W [3]) was 40 % of WT sortilin and the “sortilin ectodomain accumulated in conditioned media of HEK293MSR cells cotransfected with NSG1 (Western blot), percent of WT sortilin” value (sortilin A773W [4]) was 46 % of WT sortilin.
